Source: patent US20250382580A1, “COMPOSITIONS AND METHODS FOR ACCELERATED PRODUCTION OF THYMIC CELLS FROM PLURIPOTENT STEM CELLS” (The Regents of the University of Colorado, a body Corporate, priority 2022, published 2025)

How the values were obtained:
iPSCs = experiment: Influence of TGF-β signaling on TEP induction from iPSCs, flow cytometry and qPCR on day 14 (Example 2); assay type: cell-based; details: TGF-β signaling modulation during AFE stage (days 5-6) and VPE stage (days 7-8); flow cytometry and qPCR day 14
Procedure: In another exemplary method, the influence of TGF-β signaling during generation of TEPs in two different stages was assessed. FIG. 4A is a schematic illustrating the timelines and culture conditions for the nine protocols performed in the present exemplary method. FIG. 2 provides a chart of agents, modulators, additives, and base mediums used in this and other exemplary methods herein.
For all nine exemplary experimental conditions, on Day 1, iPSCs were plated for differentiation in mTeSR+ supplemented with ROCKi according to the method disclosed above. […]
The 9 protocols testing the effect of TGF-β inhibition (Ly), omission, or activation (T) on TEP induction were tested and analyzed by flow cytometry and qPCR on day 14. FIG. 4B illustrates flow plot quantification of CD205^+EPCAM^+ cells from each differentiation protocol and FIGS. 4C-4E illustrate a qPCR analysis of HOXA3, KRT8, and FOXN1 gene expression in the cells from each differentiation protocol.
During the AFE stage (days 5-6) the influence of: 1) inhibition of TGF-β signaling (Ly—conditions […], 2, and 3); 2) no modulation of TGF-β signaling (conditions 4, 5, and 6); and 3) activation of TGF-β signaling (T—conditions 7, 8, and 9) was assessed. […]

iPSC-derived TEP = experiment: RANKL, CD40L and NOTCH agonists added in stage 4 or 5 of differentiation, flow cytometry and qPCR (Example 5); assay type: cell-based
From the text: FIG. 7 illustrates an exemplary experimental set-up in accordance with certain embodiments of the present disclosure. This experimental set-up for production of add RANKL, CD40L, and NOTCH agonists in different combinations in stage 4 or 5 of differentiation of the progenitor cells.
FIGS. 8A-8B illustrate additional stimulants used to enhance thymic cell production having improved marker representation, 8A and […] illustrate percent representative marker outcome under the varying conditions in accordance with certain embodiments of the present disclosure.
FIGS. 9A-9B illustrate exemplary results from qPCR detection of representative markers FOXN1 and MHC-II (e.g., HLA-DR) protein expression corroborated by gene expression under control and experimental conditions in accordance with certain embodiments of the present disclosure.

## T: TGF-β activation (T), 1 ng/mL TGF-β
iPSCs
  expression of TEP/TEC markers CD205 and EPCAM, VPE marker HOXA3, TEP markers KRT8 and FOXN1: no influence

B1: RANKL: RANK pathway activator, ETP-derived signal (protein, UniProt O14788 140-317, looked up)
Tumor necrosis factor ligand …: IRAEKAMVDGSWLDLAKRSKLEAQPFAHLTINATDIPSGSHKVSLSSWYHDRGWAKISNMTFSNGKLIVNQDGFYYLYANICFRHHETSGDLATEYLQLMVYVTKTSIKIPSSHTLMKGGSTKYWSGNSEFHFYSINVGGFFKLRSGEEISIEVSNPSLLDPDQDATYFGAFKVRDID
iPSC-derived TEP
  production of FOXN1+EPCAM+ cells: did not enhance production

B2: CD40L: CD40 pathway activator, ETP-derived signal (protein, UniProt P29965 113-261, looked up)
CD40 ligand, soluble form: MQKGDQNPQIAAHVISEASSKTTSVLQWAEKGYYTMSNNLVTLENGKQLTVKRQGLYYIYAQVTFCSNREASSQAPFIASLCLKSPGRFERILLRAANTHSSAKPCGQQSIHLGGVFELQPGASVFVNVTDPSQVSHGTGFTSFGLLKL
iPSC-derived TEP
  production of FOXN1+EPCAM+ cells: did not enhance production
